Test results reported in patent US11959098B2, “Methods and culture media for culturing pluripotent stem cells” (Technion Research & Development Foundation Limited, priority 2010, dated 2024).
Entries after “also recorded” stand apart in the source; their conditions may differ.

Experiments:
[1] = test system: C2 cell line (iPS cell line derived from foreskin fibroblast); assay: Endodermal differentiation of pluripotent stem cells cultured in suspension; type: cell-based, human
Procedure: Differentiation into endodermal cells—Cells cultured in suspension with cell clumps from C2 cell line (iPS cell line derived from foreskin fibroblast) were cultured in suspension for at least 10 passages. Then the factors were removed from the culture medium and the cells were exposed to 10 ng/ml Activin for 48 hours, in medium containing cAMP increasers such as foreskulin, 8-bromocAMP, GABA, IBMX and DBC. Ten days later the cells were analyzed for endodermal markers. […] As shown in FIGS. 10A-10B the differentiated cells express PDX1, a transcription factor indicating differentiation into endoderm lineage, mainly into β-cells.
C2 cells were cultured for more than 10 passages as single cells in suspension in the pCM100F culture medium. For endoderm differentiation, the bFGF and the IL6RIL6 chimera were removed from the culture medium and activin A at concentration of 10 ng/ml was added for 48 hours in a suspension culture. 10 days after exposure to activin A, the cells were plated on Matrigel™ or HFF (human foreskin fibroblast) matrix, or were cultured in a 3-dimensional culture system (in suspension) and were stained to PDX1.

[2] = test system: hESCs cultured in suspension; assay: Neural differentiation of pluripotent stem cells cultured in suspension; type: cell-based, human; details: hESC single cells; retinoic acid (10^−3 M) or Noggin (10 ngr/ml); three weeks after induction
Procedure: Neural differentiation—To induce neural differentiation single cells cultured in suspension were transferred to a medium without bFGF and the IL6RIL6 chimera. Either retinoic acid (10^−3 M) or Noggin (10 ngr/ml) were added for three to seven days. Three weeks after differentiation induction, the cells were plated for staining with fibronectin. The cells were stained for O4 (oligodendrocytes marker), GFAP (Glial fibrillary acidic protein), nestin and β-tubulin.
Differentiation into neuronal cells—Cells from the four tested cell lines (I3, I4, I6 and H9.2) were cultured in suspension with cell clump for at least 25 passages. Then, the factors were removed from the culture medium and 5×10^−5 M Retinoic acid was added for 21 Days. The cells were then transferred to fibronectin coated plates and cultured for additional 5 days before harvesting the cells for analysis.
Human ESCs which are cultured in suspension as single cells are capable of differentiating into the neuronal cell linage—To induce neural differentiation, hESCs which are cultured in suspension as single cells were transferred to a neuronal differentiating medium (without bFGF and the IL6RIL6 chimera) which included either retinoic acid (10^−3 M) or Noggin (10 ngr/ml) as described under “General Materials and Experimental Methods” hereinabove. […]

[3] = C2 clumps, 10 ng/ml for 48 hours with cAMP increasers, ten days later

| Molecule | PDX1 expression (immunofluorescence) [1, 3] | Sox17 expression (quantitative RT-PCR) versus non-treated controls [1, 3] | SOX 17 gene expression (real time PCR) ([1]; C2 single cells, 10 ng/ml for 48 hours in suspension) | PDX1 expression (immunostaining) ([1]; C2 single cells, 10 ng/ml for 48 hours, 10 days after exposure) | differentiation into neuronal progenitor cells (GFAP, O4, β-Tubulin, Nestin staining) [2] |
| --- | --- | --- | --- | --- | --- |
| activin A: activin A at concentration of 10 ng/ml added for endoderm differentiation (protein, UniProt P08476 311-426, looked up, Inhibin beta A chain) Inhibin beta A chain: GLECDGKVNICCKKQFFVSFKDIGWNDWIIAPSGYHANYCEGECPSHIAGTSGSSLSFHSTVINHYRMRGHSPFANLKSCCVPTKLRPMSMLYYDDGQNIIKKDIQNMIVEECGCS | express PDX1 | significant increase in Sox17 expression | an increase could be observed during differentiation from day 2 to 10 | all cells which are stained by DAPI (nuclear staining) are also stained with PDX1; also recorded: expression of PDX1 in the cells | – |
| Noggin: Noggin (10 ngr/ml) added to induce neural differentiation (protein, UniProt Q13253 28-232, looked up) Noggin: QHYLHIRPAPSDNLPLVDLIEHPDPIFDPKEKDLNETLLRSLLGGHYDPGFMATSPPEDRPGGGGGAAGGAEDLAELDQLLRQRPSGAMPSEIKGLEFSEGLAQGKKQRLSKKLRRKLQMWLWSQTFCPVLYAWNDLGSRFWPRYVKVGSCFSKRSCSVPEGMVCKPSKSVHLTVLRWRCQRRGGQRCGWIPIQYPIISECKCSC | – | – | – | – | differentiated into neuronal progenitor cells |
